In patent US20080112961A1 one finds ELISA, OD, Kd and ELISA binding, fold vs Wt data, which are given here for five substances.

The target in test [1] is soluble monomeric FcγRIIIA, the extracellular region of FcγRIIIA joined to the linker-AVITAG sequence (UniProt P08637). Put plainly: ELISA.
The target in test [2] is FcγRIIB-Fc fusion protein, soluble dimer: extracellular domain of FcγRIIB fused to the hinge-CH2-CH3 domain of human IgG2 (human) (UniProt P31994). Put plainly: BIAcore, Ab on BSA-FITC. On the technique in general: In SPR one partner is held on a chip, and binding of the other changes the refractive index at the surface.
FcγRIIB-Fc fusion protein, soluble dimer: extracellular domain of FcγRIIB fused to the hinge-CH2-CH3 domain of human IgG2 (human), sequence (P31994 43-217 limits assumed): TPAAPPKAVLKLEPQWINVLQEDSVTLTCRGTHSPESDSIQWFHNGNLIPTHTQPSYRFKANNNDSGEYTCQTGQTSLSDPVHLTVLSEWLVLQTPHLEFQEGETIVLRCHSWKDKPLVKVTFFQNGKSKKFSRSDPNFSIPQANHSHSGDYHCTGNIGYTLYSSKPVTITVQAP
Test [3] addresses soluble monomeric FcγRIIIA, the extracellular region of FcγRIIIA joined to the linker-AVITAG sequence (UniProt P08637). The test can be described thus: BIAcore, Ab on BSA-FITC.
Test [4] has as its target FcγRIIB (form not stated) (UniProt P31994). Put plainly: ELISA.

FcγRIIB (form not stated), sequence (P31994 43-217 limits assumed): as above

“ch4-4-20 Mut 6 (S219V) (from UniProt P01857 1-330) (antibody)” showed an ELISA, OD in test [1] of 0.6 OD. The figures for the Kd in test [2] and in test [3] were 0.0665 µM and 0.264 µM, respectively.

As for “ch4-4-20 Mut 10 (P396L, A330S, K288N) (from UniProt P01857 1-330) (antibody)”, the equilibrium dissociation constant (Kd) – broadly, the constant that tells how readily two partners part at equilibrium – in test [3] is 0.128 µM.

For the substance “ch4-4-20 MGFc 28 (N315I, A379M, D399E) (antibody)”, in test [4], the ELISA binding, fold vs Wt came to 9 X.

“ch4-4-20 wild type (from UniProt P01857 1-330) (antibody)”: the ELISA, OD in test [1] is 0.5 OD.

In test [3], “ch4-4-20 Mut 14 (K334E, K288N) (from UniProt P01857 1-330) (antibody)” returned a Kd of 0.0754 µM.
